The text below walks through data of publication PMC4302019.

The assay deals with SibV (predicted extradiol dioxygenase of sibiromycin biosynthesis), holo form reconstituted with Fe2+ (Streptosporangium sibiricum). The experiment in a line: SEC. (Size exclusion chromatography separates by hydrodynamic size, large species first.)

For orientation: stoichiometry N means the number of molecules, sites or subunits per partner or assembly.

Regarding “SibV (predicted extradiol dioxygenase of sibiromycin biosynthesis), holo form reconstituted with Fe2+ (enzyme)”, the stoichiometry N is 2.
